pKd: −log10 of the molar value.
These substances were tested against CXC chemokine receptor 4 (CXCR4) on THP-1 cells (UniProt P61073) (assay: cell-based or functional assay).
Chain of CXC chemokine receptor 4 (CXCR4) on THP-1 cells (P61073 whole entry): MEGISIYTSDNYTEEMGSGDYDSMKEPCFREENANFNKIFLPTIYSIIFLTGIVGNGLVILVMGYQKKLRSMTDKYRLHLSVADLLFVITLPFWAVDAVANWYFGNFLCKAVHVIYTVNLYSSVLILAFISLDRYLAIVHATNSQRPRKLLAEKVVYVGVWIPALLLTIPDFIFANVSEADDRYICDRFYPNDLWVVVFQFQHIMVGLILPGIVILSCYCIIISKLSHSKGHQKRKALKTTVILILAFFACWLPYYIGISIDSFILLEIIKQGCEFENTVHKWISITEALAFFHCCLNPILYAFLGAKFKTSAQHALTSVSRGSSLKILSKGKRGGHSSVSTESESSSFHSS
In the case of “CXCL12-α E63A (from UniProt P48061 22-93) (ligand)”, the EC50 (nM), CXCR4 activation, Ca2+-flux in THP-1 cells was 3.7 nM and the Fold Increase of EC50 over wild-type CXCL12-α was 1 fold.
“CXCL12-α R47A (from UniProt P48061 22-93) (ligand)” gave an EC50 (nM), CXCR4 activation, Ca2+-flux in THP-1 cells of 14.1 nM and a Fold Increase of EC50 over wild-type CXCL12-α of 3.9 fold.
Work on “CXCL12-α K27A (from UniProt P48061 22-93) (ligand)” yielded an EC50 (nM), CXCR4 activation, Ca2+-flux in THP-1 cells of 10.1 nM and a Fold Increase of EC50 over wild-type CXCL12-α of 2.8 fold.
Substance “CXCL12-α R41A (from UniProt P48061 22-93) (ligand)” has an EC50 (nM), CXCR4 activation, Ca2+-flux in THP-1 cells of 4.3 nM and a Fold Increase of EC50 over wild-type CXCL12-α of 1.2 fold.
Work on “CXCL12-α V39A (from UniProt P48061 22-93) (ligand)” yielded an EC50 (nM), CXCR4 activation, Ca2+-flux in THP-1 cells of 27.1 nM and a Fold Increase of EC50 over wild-type CXCL12-α of 7.5 fold.
In the case of “CXCL12-α K27E (from UniProt P48061 22-93) (ligand)”, the EC50 (nM), CXCR4 activation, Ca2+-flux in THP-1 cells was 16.8 nM and the Fold Increase of EC50 over wild-type CXCL12-α was 4.7 fold.
With “CXCL12-α E60A (from UniProt P48061 22-93) (ligand)” the EC50 (nM), CXCR4 activation, Ca2+-flux in THP-1 cells was 4.1 nM and the Fold Increase of EC50 over wild-type CXCL12-α was 1.1 fold.
For “CXCL12-α K64A (from UniProt P48061 22-93) (ligand)”, the EC50 (nM), CXCR4 activation, Ca2+-flux in THP-1 cells was 5 nM and the Fold Increase of EC50 over wild-type CXCL12-α was 1.4 fold.
Substance “CXCL12-α H25R (from UniProt P48061 22-93) (ligand)” has an EC50 (nM), CXCR4 activation, Ca2+-flux in THP-1 cells of 5.1 nM and a Fold Increase of EC50 over wild-type CXCL12-α of 1.4 fold.
For “CXCL12-α V49A (from UniProt P48061 22-93) (ligand)”, the EC50 (nM), CXCR4 activation, Ca2+-flux in THP-1 cells was 8.6 nM and the Fold Increase of EC50 over wild-type CXCL12-α was 2.4 fold.
Substance “CXCL12-α R47E (from UniProt P48061 22-93) (ligand)” has an EC50 (nM), CXCR4 activation, Ca2+-flux in THP-1 cells of 654 nM and a Fold Increase of EC50 over wild-type CXCL12-α of 182 fold.
With “CXCL12-α R20A (from UniProt P48061 22-93) (ligand)” the EC50 (nM), CXCR4 activation, Ca2+-flux in THP-1 cells was 4.3 nM and the Fold Increase of EC50 over wild-type CXCL12-α was 1.2 fold.

What follows are substances tested against wild-type CXCL12-α (UniProt P48061) (assay: method not given; reference is unsulfated p38).
“p38-sY3 (CXCR4 N-terminal peptide p38 with sulfotyrosine at positions 7, 12 and 21)” showed a fold tighter binding than the unsulfated peptide (p38) of 20 fold.

These substances were tested against wild-type CXCL12-α (UniProt P48061) (assay: apparent Kd; method not given).
With “p38-sY3 (CXCR4 N-terminal peptide p38 with sulfotyrosine at positions 7, 12 and 21)” the pKd was 6.70.
